Target: HA of H3N2 influenza virus Wyomin/3/03.rg (influenza A virus H3N2 Wyomin/3/03.rg)
Test: cell-based or functional assay

Substance CT149 antibody has an MN titer of 5 µg/mL.
